Paper PMC3992121 (Proteins, 2013)

Biological target: the molecule itself
Experiment: SEC

| Protein | stoichiometry N |
| --- | --- |
| BaiA2, 3α-Hydroxysteroid Dehydrogenase from Clostridium scindens VPI 12708 (enzyme, UniProt P19337 1-249, looked up, selenomethionine (protein expressed in a selenomethionine-containing medium for structure determination)) MNLVQDKVTIITGGTRGIGFAAAKIFIDNGAKVSIFGETQEEVDTALAQLKELYPEEEVLGFAPDLTSRDAVMAAVGQVAQKYGRLDVMINNAGITSNNVFSRVSEEEFKHIMDINVTGVFNGAWCAYQCMKDAKKGVIINTASVTGIFGSLSGVGYPASKASVIGLTHGLGREIIRKNIRVVGVAPGVVNTDMTNGNPPEIMEGYLKALPMKRMLEPEEIANVYLFLASDLASGITATTVSVDGAYRP | 4 |
| BaiA1, 3α-Hydroxysteroid Dehydrogenase from Clostridium scindens VPI 12708 (enzyme, UniProt P07914 1-249, looked up) MKLVQDKITIITGGTRGIGFAAAKLFIENGAKVSIFGETQEEVDTALAQLKELYPEEEVLGFAPDLTSRDAVMAAVGTVAQKYGRLDVMINNAGITMNSVFSRVSEEDFKNIMDINVNGVFNGAWSAYQCMKDAKQGVIINTASVTGIYGSLSGIGYPTSKAGVIGLTHGLGREIIRKNIRVVGVAPGVVDTDMTKGLPPEILEDYLKTLPMKRMLKPEEIANVYLFLASDLASGITATTISVDGAYRP | 4 |
